Common to all, as to conditions: protein: recombinant; tags: none left (N-terminal His removed by TEV); chain copies: 3; single strand
The target in data set [1] is T1, SPRTN core (E112Q) (human, UniProt Q9H040 26-240, E112Q).
T1 sequence: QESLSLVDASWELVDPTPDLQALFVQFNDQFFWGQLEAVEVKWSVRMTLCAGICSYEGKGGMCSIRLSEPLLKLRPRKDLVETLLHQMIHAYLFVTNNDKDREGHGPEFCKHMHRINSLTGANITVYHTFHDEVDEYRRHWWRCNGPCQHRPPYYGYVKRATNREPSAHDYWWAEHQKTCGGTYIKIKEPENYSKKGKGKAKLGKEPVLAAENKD
The experiment in a line: ITC; no ubiquitin; N=0.36 ± 0.05; ITC: 50 mM HEPES pH 7.4, 50 mM NaCl, 0.5 mM TCEP-HCl, 25 °C, one-site model.

The target in data set [2] is T1, SPRTN core (E112Q). The experiment in a line: ITC; with equimolar M1-Ub4 (linear tetra-ubiquitin; ternary complex); N=0.29 ± 0.01; ITC: 50 mM HEPES pH 7.4, 50 mM NaCl, 0.5 mM TCEP-HCl, 25 °C, one-site model. (In ITC the heat of successive injections is recorded.)
Data set [3] concerns the target T1, SPRTN core (E112Q). The experiment in a line: ITC; with equimolar monoUb; N=0.36 ± 0.02; ITC: 50 mM HEPES pH 7.4, 50 mM NaCl, 0.5 mM TCEP-HCl, 25 °C, one-site model.

For the molecule ACGCCTGAAGAGTCTGGTGA (ssDNA) [ssDNA (20 nt), Turner-20bp-F], the values for the dissociation constant (Kd) in data set [1], in data set [2] and in data set [3] were 4.33 ± 0.98 µM, 0.44 ± 0.03 µM and 5.15 ± 1.36 µM, respectively.

The record behind these values is paper PMC12277127.
